In the supplement of paper PMC10567573 one finds protein stability index data, which are given here for 94 variants.

The chains are these.
B1: CLPTM1 (parent)
chain: LGCYAVYSLLYLEHKGWYSWVLSM
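Note: lentivirally expressed fusions sorted by FACS into six bins by GFP to DsRed ratio, PSI derived from sequencing read proportions per bin multiplied by bin number.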

Variants of B1 are the subject of this data set. The data set is described as follows: protein stability index of a GFP-peptide fusion (GPS, HEK-293T) (PSI 1-6); higher = more stable. The settings on record: c terminus: a fixed tail appended.
For the variant LGCIAVYSLLYLEHKGWYSWVLSM [Y4I], the protein stability index came to 1.89.

Turning to LGCMAVYSLLYLEHKGWYSWVLSM [Y4M], the protein stability index stood at 3.4.

Consider LGCPAVYSLLYLEHKGWYSWVLSM [Y4P], for which the protein stability index was 3.14.

For the variant LGCNAVYSLLYLEHKGWYSWVLSM [Y4N], the protein stability index was determined as 3.2.

LGCKAVYSLLYLEHKGWYSWVLSM [Y4K]: the protein stability index amounted to 3.58.

For LGCLAVYSLLYLEHKGWYSWVLSM [Y4L], the protein stability index came to 3.04.

For the variant LGCSAVYSLLYLEHKGWYSWVLSM [Y4S], the protein stability index worked out at 3.75.

Regarding LGCFAVYSLLYLEHKGWYSWVLSM [Y4F], the protein stability index was found to be 2.33.

As for LGCGAVYSLLYLEHKGWYSWVLSM [Y4G], the protein stability index came to 3.18.

Take LGCRAVYSLLYLEHKGWYSWVLSM [Y4R]: the protein stability index is 2.91.

For LGCWAVYSLLYLEHKGWYSWVLSM [Y4W], the protein stability index turned out to be 2.19.

For LGCDAVYSLLYLEHKGWYSWVLSM [Y4D], the protein stability index turned out to be 1.9.

As for LGCTAVYSLLYLEHKGWYSWVLSM [Y4T], the protein stability index stood at 3.11.

For the variant LGCVAVYSLLYLEHKGWYSWVLSM [Y4V], the protein stability index worked out at 3.14.

Turning to LGCQAVYSLLYLEHKGWYSWVLSM [Y4Q], the protein stability index turned out to be 2.4.

LGCCAVYSLLYLEHKGWYSWVLSM [Y4C]: the protein stability index is 3.33.

Consider LGCHAVYSLLYLEHKGWYSWVLSM [Y4H], for which the protein stability index came to 2.69.

LGCYADYSLLYLEHKGWYSWVLSM [V6D]: the protein stability index came out at 3.58.

LGCYAGYSLLYLEHKGWYSWVLSM [V6G]: the protein stability index amounted to 2.72.

Take LGCYASYSLLYLEHKGWYSWVLSM [V6S]: the protein stability index stood at 2.76.

Take LGCYAIYSLLYLEHKGWYSWVLSM [V6I]: the protein stability index is 3.34.

LGCYAEYSLLYLEHKGWYSWVLSM [V6E]: the protein stability index came to 2.84.

Regarding LGCYAKYSLLYLEHKGWYSWVLSM [V6K], the protein stability index is 2.83.

For LGCYALYSLLYLEHKGWYSWVLSM [V6L], the protein stability index worked out at 3.28.

Turning to LGCYAPYSLLYLEHKGWYSWVLSM [V6P], the protein stability index is 2.49.

Regarding LGCYACYSLLYLEHKGWYSWVLSM [V6C], the protein stability index was 4.28.

With LGCYANYSLLYLEHKGWYSWVLSM [V6N], the protein stability index is 2.73.

Turning to LGCYAAYSLLYLEHKGWYSWVLSM [V6A], the protein stability index is 3.13.

As for LGCYAWYSLLYLEHKGWYSWVLSM [V6W], the protein stability index is 1.84.

Regarding LGCYATYSLLYLEHKGWYSWVLSM [V6T], the protein stability index was 2.61.

On to LGCYAFYSLLYLEHKGWYSWVLSM [V6F], for which the protein stability index turned out to be 3.45.

As for LGCYAMYSLLYLEHKGWYSWVLSM [V6M], the protein stability index is 2.22.

As to LGCYAHYSLLYLEHKGWYSWVLSM [V6H], the protein stability index was determined as 2.31.

Take LGCYARYSLLYLEHKGWYSWVLSM [V6R]: the protein stability index came to 2.3.

As to LGCYAVYSLLYLCHKGWYSWVLSM [E13C], the protein stability index stood at 2.64.

Consider LGCYAVYSLLYLYHKGWYSWVLSM [E13Y], for which the protein stability index was determined as 2.12.

As for LGCYAVYSLLYLTHKGWYSWVLSM [E13T], the protein stability index was 3.83.

Turning to LGCYAVYSLLYLLHKGWYSWVLSM [E13L], the protein stability index stood at 3.4.

For the variant LGCYAVYSLLYLDHKGWYSWVLSM [E13D], the protein stability index stood at 2.51.

In the case of LGCYAVYSLLYLIHKGWYSWVLSM [E13I], the protein stability index was determined as 4.56.

As for LGCYAVYSLLYLMHKGWYSWVLSM [E13M], the protein stability index was found to be 2.58.

On to LGCYAVYSLLYLFHKGWYSWVLSM [E13F], for which the protein stability index is 3.1.

Turning to LGCYAVYSLLYLGHKGWYSWVLSM [E13G], the protein stability index stood at 1.95.

As for LGCYAVYSLLYLAHKGWYSWVLSM [E13A], the protein stability index turned out to be 1.11.

On to LGCYAVYSLLYLPHKGWYSWVLSM [E13P], for which the protein stability index turned out to be 3.78.

In the case of LGCYAVYSLLYLHHKGWYSWVLSM [E13H], the protein stability index worked out at 3.66.

Consider LGCYAVFSLLYLEHKGWYSWVLSM [Y7F], for which the protein stability index came out at 3.72.

For the variant LGCYAVVSLLYLEHKGWYSWVLSM [Y7V], the protein stability index was 3.4.

With LGCYAVISLLYLEHKGWYSWVLSM [Y7I], the protein stability index is 3.09.

With LGCYAVNSLLYLEHKGWYSWVLSM [Y7N], the protein stability index is 5.04.

On to LGCYAVWSLLYLEHKGWYSWVLSM [Y7W], for which the protein stability index came out at 3.23.

Take LGCYAVDSLLYLEHKGWYSWVLSM [Y7D]: the protein stability index amounted to 3.78.

As to LGCYAVCSLLYLEHKGWYSWVLSM [Y7C], the protein stability index amounted to 3.42.

Take LGCYAVPSLLYLEHKGWYSWVLSM [Y7P]: the protein stability index stood at 3.71.

Take LGCYAVMSLLYLEHKGWYSWVLSM [Y7M]: the protein stability index was found to be 3.54.

Consider LGCYAVHSLLYLEHKGWYSWVLSM [Y7H], for which the protein stability index is 2.13.

On to LGCYAVESLLYLEHKGWYSWVLSM [Y7E], for which the protein stability index was determined as 2.54.

LGCYAVRSLLYLEHKGWYSWVLSM [Y7R]: the protein stability index was 2.82.

Turning to LGCYAVQSLLYLEHKGWYSWVLSM [Y7Q], the protein stability index was found to be 2.39.

Take LGCYAVKSLLYLEHKGWYSWVLSM [Y7K]: the protein stability index was 2.19.

With LGCYAVYSLRYLEHKGWYSWVLSM [L10R], the protein stability index stood at 1.94.

Consider LGCYAVYSLCYLEHKGWYSWVLSM [L10C], for which the protein stability index is 2.87.

Turning to LGCYAVYSLSYLEHKGWYSWVLSM [L10S], the protein stability index is 1.76.

LGCYAVYSLAYLEHKGWYSWVLSM [L10A]: the protein stability index is 2.39.

As for LGCYAVYSLIYLEHKGWYSWVLSM [L10I], the protein stability index turned out to be 3.43.

On to LGCYAVYSLTYLEHKGWYSWVLSM [L10T], for which the protein stability index stood at 2.74.

As to LGCYAVYSLPYLEHKGWYSWVLSM [L10P], the protein stability index amounted to 2.45.

As to LGCYAVYSLYYLEHKGWYSWVLSM [L10Y], the protein stability index was found to be 2.5.

For LGCYAVYSLHYLEHKGWYSWVLSM [L10H], the protein stability index came to 2.84.

For the variant LGCYAVYSLMYLEHKGWYSWVLSM [L10M], the protein stability index is 2.82.

Turning to LGCYAVYSLNYLEHKGWYSWVLSM [L10N], the protein stability index stood at 3.35.

Take LGCYAVYSLGYLEHKGWYSWVLSM [L10G]: the protein stability index is 3.1.

In the case of LGCYAVYSLDYLEHKGWYSWVLSM [L10D], the protein stability index was 3.21.

As to LGCYAVYSLQYLEHKGWYSWVLSM [L10Q], the protein stability index was 3.9.

As to LGCYAVYSLKYLEHKGWYSWVLSM [L10K], the protein stability index amounted to 3.39.

Turning to LGCYAVYSLFYLEHKGWYSWVLSM [L10F], the protein stability index was found to be 3.57.

As to LGCYAVYSLWYLEHKGWYSWVLSM [L10W], the protein stability index came to 2.32.

Turning to LGCYAVYSLLYDEHKGWYSWVLSM [L12D], the protein stability index is 2.74.

As for LGCYAVYSLLYKEHKGWYSWVLSM [L12K], the protein stability index was 3.11.

Turning to LGCYAVYSLLYVEHKGWYSWVLSM [L12V], the protein stability index turned out to be 2.89.

LGCYAVYSLLYYEHKGWYSWVLSM [L12Y]: the protein stability index is 2.43.

LGCYAVYSLLYFEHKGWYSWVLSM [L12F]: the protein stability index was found to be 3.31.

Turning to LGCYAVYSLLYIEHKGWYSWVLSM [L12I], the protein stability index worked out at 3.36.

Take LGCYAVYSLLYMEHKGWYSWVLSM [L12M]: the protein stability index turned out to be 4.09.

LGCYAVYSLLYTEHKGWYSWVLSM [L12T]: the protein stability index was 2.14.

In the case of LGCYAVYSLLYWEHKGWYSWVLSM [L12W], the protein stability index stood at 2.4.

As to LGCYAVYSLLYREHKGWYSWVLSM [L12R], the protein stability index amounted to 4.16.

As to LGCYAVYSLLYNEHKGWYSWVLSM [L12N], the protein stability index came out at 4.59.

With LGCYAVYSLLYSEHKGWYSWVLSM [L12S], the protein stability index was found to be 2.02.

Consider LGCYAVYSLLYPEHKGWYSWVLSM [L12P], for which the protein stability index worked out at 3.25.

Consider LGCYAVYSLLYEEHKGWYSWVLSM [L12E], for which the protein stability index is 3.57.

Regarding LGCYAVYSLLYHEHKGWYSWVLSM [L12H], the protein stability index is 2.99.

As for LGCYAVYSLLYQEHKGWYSWVLSM [L12Q], the protein stability index is 3.59.

LGCYAVYSLLYGEHKGWYSWVLSM [L12G]: the protein stability index amounted to 3.12.
